B1: Round 2 CD28A4-9 (ligand)
chain: ITPKSVTKRVKETVMLSCDYNTSTEKLTSLRIYWQKDSKMVLAILPGKVQVWPEYKNRTITDMNDNPRIVILALRLSDSGTYTCVIQKPVLKGAYKLEHLTSVRLMIRADFPVPTINDLGNPSPNIRRLICSTSGGFPRPHLYWLENGEELNATNTTVSQDPETKLYMISSELDFNVTNNHSIVCLIKYGELSVSQIFPWSKPKQEPPIDQLPFWVIIPVSGALVLTAVVLYCPACRHVARWKRTRRNEETVGTERLSPIYLGSAQSRAEVPSLSX
modifications: not fully specified; X: residue not identified in the source; ends and bridges not checked
B2: Round 2 CD28A12-5 (ligand)
chain: ITPKSVTKRVKETVMLSCDYNTSTEELTSLRIYWRKDSKMXLAILPGKVQVWPEYKNRTITDMNDNLRIVILALRLSDSGTYTCVIQKPDLKGAYKLEHLTSVRLMIRADFPVPTINDLGNPSPNIRRLICSTSGGFPRPHLYWLENGEELNATNTTVSQDPGTELYMISSELDFNVTNNHSIVCLIKYGELLVSQIFPWSKPKQEPPIDQLPFWVIIPVSGALVLTAVVLYCLACRHVARWKRTRRNEETVGTERLSPIYLGSAQSSG
modifications: not fully specified; X: residue not identified in the source; ends and bridges not checked; also: glycosylated membrane protein, sites not given here

Molecular target: Soluble CD28-Ig (extracellular domain of human CD28 fused to the Fc portion of human IgG1) (human), P10747
Test: competitive FACS on transfected cells, biotin-sCD28-Ig with FITC-sCTLA-4-Ig; grade 0-2 of CD28/CTLA-4 ratio vs WT hB7-1

| Binder | Binding Score |
| --- | --- |
| B1 | 1 |
| B2 | 1 |

From US20100261660A1
